Values of other authors as cited in publication PMC11634773 (Nature, 2024).

Conditions: humans, basal insulin

**Q.** For insulin glargine, which “c.v. for traditional needle-based subcutaneous pen injection” value is on record?
**A.** Its value is 33%.
